Data published in US20180044415A1 (AbbVie / Abbott, published 2018).
Changes are numbered by the printed parent chain. Blank lines part the entries; values can stand above or below the binder they belong to.

Tests used:
[1] = biological target: T1, DLL3 extracellular domain (amino acids 27-466) displayed on yeast (human, UniProt Q9NYJ7 27-466); test: fine epitope mapping
T1 construct: Yeast surface display construct with HA tag; also called DLL3 ECD; wild type DLL3 ECD
T1 sequence: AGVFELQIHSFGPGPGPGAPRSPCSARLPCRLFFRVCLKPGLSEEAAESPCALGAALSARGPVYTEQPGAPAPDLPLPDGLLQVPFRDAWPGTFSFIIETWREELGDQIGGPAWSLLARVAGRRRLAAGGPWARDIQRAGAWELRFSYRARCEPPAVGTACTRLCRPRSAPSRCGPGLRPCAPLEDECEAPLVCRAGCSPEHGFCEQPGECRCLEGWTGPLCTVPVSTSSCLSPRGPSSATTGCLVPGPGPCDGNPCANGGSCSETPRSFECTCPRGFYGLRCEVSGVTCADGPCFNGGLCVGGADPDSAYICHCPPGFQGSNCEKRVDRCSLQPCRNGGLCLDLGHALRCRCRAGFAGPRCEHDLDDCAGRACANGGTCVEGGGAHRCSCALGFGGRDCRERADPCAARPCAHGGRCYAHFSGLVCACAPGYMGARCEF
Protocol: To test for binding to a particular construct, 200,000 induced yeast cells expressing the desired construct were washed twice in PBS+1 mg/mL BSA (PBSA), and incubated in 50 μL of PBSA with biotinylated anti-HA clone 3F10 (Roche Diagnostics) at 0.1 μg/mL and either 50 nM purified antibody or 1:2 dilution of unpurified supernatant from hybridomas cultured for 7 days. Cells were incubated for 90 minutes on ice, followed by two washes in PBSA. Cells were then incubated in 50 μL PBSA with the appropriate secondary antibodies: for murine antibodies, Alexa 488 conjugated streptavidin, and Alexa 647 conjugated goat anti mouse (Life Technologies) were added at 1 μg/mL each; and for humanized or chimeric antibodies, Alexa 647 conjugated streptavidin (Life Technologies) and R-phycoerythrin conjugated goat anti human (Jackson Immunoresearch) were added at 1 μg/mL each. After a twenty minute incubation on ice, cells were washed twice with PBSA and analyzed on a FACS Canto II. Antibodies that bound to DLL3-DLL1 chimera were designated as binding to the N-terminal region+DSL. Antibodies that bound specifically to an epitope present on a particular EGF-like domain were designated as binding to its respective domain (FIG. 2.)
Alternatively, a yeast display method (Chao et al., 2007, PMID: 17406305) was used to map the epitopes of selected antibodies. Libraries of DLL3 ECD mutants were generated with error prone PCR using nucleotide analogues 8-oxo-2′deoxyguanosine-5′-triphosphate and 2′-deoxy-p-nucleoside-5′triphosphate (TriLink Bio) for a target mutagenesis rate of one amino acid mutation per clone. These were transformed into a yeast display format. Using the technique described above for domain-level mapping, the library was stained for HA and antibody binding at 50 nM. […] These clones were re-grown, and subjected to another round of FACS sorting for loss of binding to the target antibody. Using the Zymoprep Yeast Plasmid Miniprep kit (Zymo Research), individual ECD clones were isolated and sequenced. […]

[2] = biological target: T2, human DLL3 (immobilized human DLL3 or h293-hDLL3 cells) (human, UniProt Q9NYJ7 27-492, limits assumed); test: hybridoma screening on immobilized human DLL3 or on h293-hDLL3 cells
T2 construct: the sentence says 'immobilized human DLL3 or h293-hDLL3 cells'
T2 sequence: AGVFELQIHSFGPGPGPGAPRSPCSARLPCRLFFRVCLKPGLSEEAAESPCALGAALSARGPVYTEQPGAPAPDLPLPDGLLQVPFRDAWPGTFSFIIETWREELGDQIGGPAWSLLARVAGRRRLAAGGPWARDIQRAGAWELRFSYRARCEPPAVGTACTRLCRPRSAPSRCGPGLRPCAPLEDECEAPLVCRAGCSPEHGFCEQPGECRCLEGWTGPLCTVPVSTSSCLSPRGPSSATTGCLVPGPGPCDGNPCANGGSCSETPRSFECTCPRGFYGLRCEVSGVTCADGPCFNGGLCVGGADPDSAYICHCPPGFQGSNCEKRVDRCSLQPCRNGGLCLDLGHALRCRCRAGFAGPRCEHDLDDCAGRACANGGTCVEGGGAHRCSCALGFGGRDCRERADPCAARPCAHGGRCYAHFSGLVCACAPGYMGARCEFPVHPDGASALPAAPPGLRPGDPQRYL

- binding result [1]: binds
- binding result [2]: binds
B1: SC16.34 (antibody, V domains shown)
VH: QIQLVQSGPELKRPGETVKISCKASGYTFTNYGMNWVKQAPGKGLKWMGWINTYTGDPTYADDFKGRFAFSLETSASTAYLQINNLKNEDTATYFCARIGGNSPSDYWGQGTSLTVSS
VL: SIVMTQTPKFLLVSAGDRVTITCKASQSVSNDVAWYQQKPGQSPKLLIYYASNRYSGVPDRFTGSGYGTDFTFTISTVQAEDLAVYFCQQDYSSPWTFGGGTKLEIK
notes: murine mAb; variable regions only

- binding result [2]: binds
B2: SC16.133 (antibody, V domains shown)
VH: QVQLKESGPGLVAPSQSLSITCTVSGFSLTNYAVHWVRQSPGKGLEWLGVIWSDGSTDYNAAFISRLSISKDNSKSQVFFKMNSLQADDTAMYYCARKKGGWFPWFAYWGQGTLVTVSA
VL: B1 VL with Y50C, S56T, W96L, G100A, I106L
notes: as for B1

- binding result [1]: binds
- binding result [2]: binds
B3: SC16.56 (antibody, V domains shown)
VH: B1 VH with R13K, G49A, D57E, Y80S, N84I, G101D, N102S, S113T
VL: B1 VL with A34V, S56T, T63A, T72S, S93T, K107R
notes: as for B1

- binding result [2]: binds
B4: SC16.140 (antibody, V domains shown)
VH: QVQLQQSGPELVRPGASVKMSCKASGYTFTSYWMHWVKQRPGQGLEWIGMIDPSNSETRLNQKFKDKATLNVDKSSNTAYMQLSSLTSEDSAVYYCAVMDYYFDYWGQGTTLTVSS
VL: DIVLTQSLASLAVSLGQRATISCRASKSVSTSGYSYMHWYQQKPGQPPKLLIYLASNLESGVPARFSGSGSGTDFTLNIHPVEDEDAATYYCQHSRELPFTFGGGTKLEIK
notes: as for B1

- binding result [2]: binds
B5: SC16.135 (antibody, V domains shown)
VH: QVQLQQSGAELVRPGTSVKVSCKASGYAFTNYLIEWVKQRPGQGLEWIGVINPGSGGTNSNEKFKAKATLTADKSSSTAYMQLSSLTSADSAVYFCARSDYDYAFYAMDYWGQGTSVTVSS
VL: DIKMTQSPSSMYASLGERVTITCKASQDINRYLSWFQQKPGKSPKTLIYRANRLVDGVPSRFSGSGSGQDYSLTISSLEYEDMGIYYCLQYDEFPFTFGSGTKLEIK
notes: as for B1

- binding result [2]: binds
B6: SC16.141 (antibody, V domains shown)
VH: QVQLKQSGPGLVAPSQSLFITCTVSGFSLTSYEINWVRQPPGKGLEWLGVIWTGGSTNYNSALISRLSISKDNSKSLVFLKMNSLQTDDTAIYYCVRGVYAMDYWGQGTSVTVSS
VL: B5 VL with R31S
notes: as for B1

- binding result [2]: binds
B7: SC16.136 (antibody, V domains shown)
VH: EVQLQQSGPELVKPGASVKMSCKASGYTFTSYVMHWVKQKPGQGLEWIGYINPYNDGTKYNEKFKGKATLTSDKSSSTAYMELSSLTSEDSAVYYCARDRSGYEDYYGMDYWGQGTSVTVSS
VL: DIQMTQSPASLSASVGETVTITCRASGNIHNYLAWYQQKQGKSPHLLVYNAKTLADGVPSRFSGSGSGTQYSLKINSLQPEDFGSYYCQHFWSTPWTFGGGTKLEIK
notes: as for B1

- binding result [2]: binds
B8: SC16.137 (antibody, V domains shown)
VH: EVQLVESGGDLVKPGGSLKLSCAASGFTFSSYGMSWVRQTPDKRLEWVATISSGGSYTYYPDSVKGRFTISRDNAKNTLYLQMSSLKSEDTAMYYCARRRADAMDYWGQGTSVTVSS
VL: QIVLTQSPAIMSASLGEEITLTCSASSSVSYMHWYQQKSGTSPKLLIYSTSNLASGVPSRFSGSGSGTFYSLTISSVEAEDAADYYCHQWSSYHTFGGGTKLEIKR
notes: as for B1

- binding result [1]: binds
- binding result [2]: binds
B9: SC16.23 (antibody, V domains shown)
VH: QVTLKESGPGILQPSQTLSLTCSFSGFSLSTSNTGIGWIRQPSGTGLEWLAHIWWNDDKYYNPSLKSRLTISKETSNNQVFLKITNVDTADTASYFCVQIGRDYSNYAWYFDVWGAGTTVTVSS
VL: QIVLTQSPAIMSASPGEKVTLTCSASSSVSSRYLYWYQQKPGSSPKLWIYSTSNLASGVPARFSGSGSGTSYSLIISSMEAEDAASYFCHQWSNYPLTFGAGTKLELK
notes: as for B1
